This is an account of results in patent publication US20240094220A1 (NORTHEASTERN UNIVERSITY, published 2024).

The assay concerns the target T1, mouse PD-L1 on the surface of DC 2.4 dendritic cells (mouse, UniProt Q9EP73 19-290).
T1 construct: whole, on cells; also called Programmed Death-Ligand 1
Description: flow cytometry on DC 2.4 cells, purified Nb detected with fluorophore-conjugated anti-FLAG antibody. How it is done:
While the majority of anti-PD-L1 and anti-CTLA-4 Nbs are currently produced intracellularly in E. coli, the lengthy processes of lysing bacteria and removing endotoxins may dramatically increase costs and demand a centralized facility for production. […] Of note, in the shake-flask expression system, anti-PD-L1 and anti-CTLA-4 Nbs can be secreted into the supernatant of B. subtilis culture at ˜15 mg per liter of culture. To further confirm that these Nbs remain functional following secretion and purification, the mouse dendritic cell line DC 2.4 was chosen because it is known to constitutively express the immunoinhibitory receptor PD-L1 on the cell surface (FIG. 5, Panel A), and it was also validated the expression of PD-L1 by a commercial antibody specific for mouse PD-L1. […] The stained samples were analyzed by flow cytometry and fluorescence microscopy—results of flow cytometry indicated the specific binding of purified anti-PD-L1 Nbs and no binding for the anti-caffeine Nb control in comparison to the unstained sample (FIG. 5, Panel B). […] To further test whether the purification step could be bypassed by directly using bacterial supernatant, 200 μl of the original B. subtilis supernatant containing the anti-PD-L1 Nb was applied to stain ˜one million DC 2.4 cells for fluorescence microscopy.
In general terms: A flow cytometer gives signals particle by particle.

T1 sequence (Q9EP73 19-290): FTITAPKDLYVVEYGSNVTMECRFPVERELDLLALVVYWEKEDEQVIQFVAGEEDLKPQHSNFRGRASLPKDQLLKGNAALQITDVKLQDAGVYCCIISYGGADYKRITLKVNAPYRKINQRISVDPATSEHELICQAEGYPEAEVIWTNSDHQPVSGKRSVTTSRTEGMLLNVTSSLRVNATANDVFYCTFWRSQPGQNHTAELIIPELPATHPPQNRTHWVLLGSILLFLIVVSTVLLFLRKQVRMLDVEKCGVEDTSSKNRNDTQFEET

B1: anti-caffeine nanobody secreted from B. subtilis (CBD fusion, with FLAG epitope) (VHH, not shown: large carriers)
VHH: QVQLVESGGGLVQAGGSLRLSCTASGRTGTIYSMAWFRQAPGKEREFLATVGWSSGITYYMDSVKGRFTISRDKGKNTVYLQMDSLKPEDTAVYYCTATRAYSVGYDYWGQGTQVTVSS
notes: Negative control in the PD-L1 staining; also called anti-caffeine Nb; CBD-anti-caffeine Nb
In the case of B1, the binding result is “no binding”.
